# Source: publication PMC10598736, “Structural insights into Rad18 targeting by the SLF1 BRCT domains” (The Journal of Biological Chemistry, 2023)
# B1: SLF1 tandem BRCT repeat (SLF1^tBRCT), residues 1-199, wild type (domain or fragment, UniProt Q9BQI6 1-199, looked up)
# chain: MEDGTPKHIIQMTGFKMEEKEALVKLLLKLDCTFIKSEKYKNCTHLIAERLCKSEKFLAACAAGKWILTKDYIIHSAKSGRWLDETTYEWGYKIEKDSRYSPQMQSAPKRWREELKRTGAPGAFHRWKVVLLVRTDKRSDSLIRVLEAGKANVILPKSSPSGITHVIASNARIKAEKEKDNFKAPFYPIQYLGDFLLEK
# notes: SMC5/6 localization factor 1 (SLF1), tandem BRCT repeat at the N-terminus, residues 1-199; coding region optimized for E. coli and synthesized; also called WT; SMC5/6 localization factor 1 tBRCT; source: E. coli BL21 Rosetta (DE3), purified (Ni-NTA, heparin, gel filtration)
# Tests used:
# [1] = target: T1, full-length Rad18 S442E/S444E (2SE), strep-his-sumo-tagged (human, UniProt Q9NS91 1-495, S442E | S444E); experiment: pull-down; his-strep-sumo-tagged Rad18 (50 μg) held on streptactin beads, incubated with 50 μg SLF1^tBRCT at 4 °C for 60 min; 20 mM Tris (pH 7.5), 200 mM sodium chloride, 2 mM DTT; eluted with D-desthiobiotin, SDS PAGE; details: both partners purified
# T1 construct: Rad18, human, with the phosphomimetics S442E/S444E; also called S442E/S444E (2SE)-substituted Rad18; source: E. coli BL21 Rosetta (DE3), purified (same protocol as the wild type); not shown: Strep, N-terminal, kept; His, N-terminal, kept; SUMO, N-terminal, kept
# T1 sequence (Q9NS91 whole entry S442E/S444E): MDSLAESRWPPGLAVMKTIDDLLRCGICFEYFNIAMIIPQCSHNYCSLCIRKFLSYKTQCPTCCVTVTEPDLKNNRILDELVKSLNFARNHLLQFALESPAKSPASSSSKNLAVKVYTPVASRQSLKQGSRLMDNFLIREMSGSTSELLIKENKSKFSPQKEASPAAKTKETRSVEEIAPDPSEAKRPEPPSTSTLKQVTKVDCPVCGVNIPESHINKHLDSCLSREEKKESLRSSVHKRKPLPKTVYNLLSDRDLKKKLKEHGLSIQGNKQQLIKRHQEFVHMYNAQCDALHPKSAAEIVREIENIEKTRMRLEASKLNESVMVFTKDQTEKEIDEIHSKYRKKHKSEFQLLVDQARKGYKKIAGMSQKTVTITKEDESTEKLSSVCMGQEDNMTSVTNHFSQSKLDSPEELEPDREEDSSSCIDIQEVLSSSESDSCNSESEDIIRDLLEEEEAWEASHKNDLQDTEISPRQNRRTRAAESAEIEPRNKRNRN
# [2] = target: T2, full-length Rad18 S442E, strep-his-sumo-tagged (human, UniProt Q9NS91 1-495, S442E); experiment: as above; details: both partners purified
# T2 construct: Rad18, human, with the phosphomimetic S442E; also called S442E-substituted Rad18; source: E. coli BL21 Rosetta (DE3), purified (same protocol as the wild type); not shown: Strep, N-terminal, kept; His, N-terminal, kept; SUMO, N-terminal, kept
# T2 sequence (Q9NS91 whole entry S442E): as the sequence (Q9NS91 whole entry S442E/S444E) above, with E444S counted along it
binder,measurement,setting,value
B1,binding result,[1],binds
same,binding result,[2],binds
